We go through 5 molecules from patent publication US20140087995A1 (published 2014).

As usually defined, the IC50 is the concentration that gives 50% inhibition.

Numbered stars: 1 amine (or outer) side, 2 acyl side, 3 side chain; on linkers, the order of the positions; unused ones are H or OH. Bridge positions count the residues as written; N and C are the ends. Side chains are listed from the residue outwards. Ends that are not written are not given here. * marks the point of attachment. C20 diacid = O=C(O)CCCCCCCCCCCCCCCCCCC(=O)*; γGlu = O=C(O)[C@H](CCC(=O)[*:2])N[*:1]; AEEA = NCCOCCOCC(=O)O

The chains are these.
B1: N^ε1-[2-[2-[2-[[(4S)-4-carboxy-4-(19-carboxynonadecanoylamino)butanoyl]amino]ethoxy]ethoxy]acetyl]-[Arg17,Pro21,Pro27,Pro31,His35]-h-amylin (peptide)
peptide: K([AEEA-γGlu-C20 diacid])CNTATCATQRLANFLRHSSPNFGAIPSSTPVGSHTY-NH2
modifications: disulfide 2-7; N-terminus assumed
SMILES: CC[C@H](C)[C@H](NC(=O)[C@H](C)NC(=O)CNC(=O)[C@H](Cc1ccccc1)NC(=O)[C@H](CC(N)=O)NC(=O)[C@@H]1CCCN1C(=O)[C@H](CO)NC(=O)[C@H](CO)NC(=O)[C@H](Cc1c[nH]cn1)NC(=O)[C@H](CCCNC(=N)N)NC(=O)[C@H](CC(C)C)NC(=O)[C@H](Cc1ccccc1)NC(=O)[C@H](CC(N)=O)NC(=O)[C@H](C)NC(=O)[C@H](CC(C)C)NC(=O)[C@H](CCCNC(=N)N)NC(=O)[C@H](CCC(N)=O)NC(=O)[C@@H](NC(=O)[C@H](C)NC(=O)[C@@H]1CSSC[C@H](NC(=O)[C@@H](N)CCCCNC(=O)COCCOCCNC(=O)CC[C@H](NC(=O)CCCCCCCCCCCCCCCCCCC(=O)O)C(=O)O)C(=O)N[C@@H](CC(N)=O)C(=O)N[C@@H]([C@@H](C)O)C(=O)N[C@@H](C)C(=O)N[C@@H]([C@@H](C)O)C(=O)N1)[C@@H](C)O)C(=O)N1CCC[C@H]1C(=O)N[C@@H](CO)C(=O)N[C@@H](CO)C(=O)N[C@H](C(=O)N1CCC[C@H]1C(=O)N[C@H](C(=O)NCC(=O)N[C@@H](CO)C(=O)N[C@@H](Cc1c[nH]cn1)C(=O)N[C@H](C(=O)N[C@@H](Cc1ccc(O)cc1)C(N)=O)[C@@H](C)O)C(C)C)[C@@H](C)O
notes: Acylated analogue of human amylin; also called compound 57
B2: N^ε1-[2-[2-[2-[[(4S)-4-carboxy-4-(19-carboxynonadecanoylamino)butanoyl]amino]ethoxy]ethoxy]acetyl]-[His14,Arg17,Pro21,Pro27,Pro31]-h-amylin (peptide)
peptide: K([AEEA-γGlu-C20 diacid])CNTATCATQRLAHFLRHSSPNFGAIPSSTPVGSNTY-NH2
modifications: disulfide 2-7; N-terminus assumed
SMILES: CC[C@H](C)[C@H](NC(=O)[C@H](C)NC(=O)CNC(=O)[C@H](Cc1ccccc1)NC(=O)[C@H](CC(N)=O)NC(=O)[C@@H]1CCCN1C(=O)[C@H](CO)NC(=O)[C@H](CO)NC(=O)[C@H](Cc1c[nH]cn1)NC(=O)[C@H](CCCNC(=N)N)NC(=O)[C@H](CC(C)C)NC(=O)[C@H](Cc1ccccc1)NC(=O)[C@H](Cc1c[nH]cn1)NC(=O)[C@H](C)NC(=O)[C@H](CC(C)C)NC(=O)[C@H](CCCNC(=N)N)NC(=O)[C@H](CCC(N)=O)NC(=O)[C@@H](NC(=O)[C@H](C)NC(=O)[C@@H]1CSSC[C@H](NC(=O)[C@@H](N)CCCCNC(=O)COCCOCCNC(=O)CC[C@H](NC(=O)CCCCCCCCCCCCCCCCCCC(=O)O)C(=O)O)C(=O)N[C@@H](CC(N)=O)C(=O)N[C@@H]([C@@H](C)O)C(=O)N[C@@H](C)C(=O)N[C@@H]([C@@H](C)O)C(=O)N1)[C@@H](C)O)C(=O)N1CCC[C@H]1C(=O)N[C@@H](CO)C(=O)N[C@@H](CO)C(=O)N[C@H](C(=O)N1CCC[C@H]1C(=O)N[C@H](C(=O)NCC(=O)N[C@@H](CO)C(=O)N[C@@H](CC(N)=O)C(=O)N[C@H](C(=O)N[C@@H](Cc1ccc(O)cc1)C(N)=O)[C@@H](C)O)C(C)C)[C@@H](C)O
notes: Acylated analogue of human amylin; also called compound 61
B3: N^ε1-[(4S)-4-carboxy-4-(19-carboxynonadecanoylamino)butanoyl]-[Arg17,Pro21,Pro27,His35]-h-amylin (peptide)
peptide: K([γGlu-C20 diacid])CNTATCATQRLANFLRHSSPNFGAIPSSTNVGSHTY-NH2
modifications: disulfide 2-7; N-terminus assumed
SMILES: CC[C@H](C)[C@H](NC(=O)[C@H](C)NC(=O)CNC(=O)[C@H](Cc1ccccc1)NC(=O)[C@H](CC(N)=O)NC(=O)[C@@H]1CCCN1C(=O)[C@H](CO)NC(=O)[C@H](CO)NC(=O)[C@H](Cc1c[nH]cn1)NC(=O)[C@H](CCCNC(=N)N)NC(=O)[C@H](CC(C)C)NC(=O)[C@H](Cc1ccccc1)NC(=O)[C@H](CC(N)=O)NC(=O)[C@H](C)NC(=O)[C@H](CC(C)C)NC(=O)[C@H](CCCNC(=N)N)NC(=O)[C@H](CCC(N)=O)NC(=O)[C@@H](NC(=O)[C@H](C)NC(=O)[C@@H]1CSSC[C@H](NC(=O)[C@@H](N)CCCCNC(=O)CC[C@H](NC(=O)CCCCCCCCCCCCCCCCCCC(=O)O)C(=O)O)C(=O)N[C@@H](CC(N)=O)C(=O)N[C@@H]([C@@H](C)O)C(=O)N[C@@H](C)C(=O)N[C@@H]([C@@H](C)O)C(=O)N1)[C@@H](C)O)C(=O)N1CCC[C@H]1C(=O)N[C@@H](CO)C(=O)N[C@@H](CO)C(=O)N[C@H](C(=O)N[C@@H](CC(N)=O)C(=O)N[C@H](C(=O)NCC(=O)N[C@@H](CO)C(=O)N[C@@H](Cc1c[nH]cn1)C(=O)N[C@H](C(=O)N[C@@H](Cc1ccc(O)cc1)C(N)=O)[C@@H](C)O)C(C)C)[C@@H](C)O
notes: Acylated analogue of human amylin; also called compound 60
B4: N^ε1-[2-[2-[2-[[(4S)-4-carboxy-4-(19-carboxynonadecanoylamino)butanoyl]amino]ethoxy]ethoxy]acetyl]-[Arg17,Pro21,Pro27,Pro34]-h-amylin (peptide)
peptide: K([AEEA-γGlu-C20 diacid])CNTATCATQRLANFLRHSSPNFGAIPSSTNVGPNTY-NH2
modifications: disulfide 2-7; N-terminus assumed
SMILES: CC[C@H](C)[C@H](NC(=O)[C@H](C)NC(=O)CNC(=O)[C@H](Cc1ccccc1)NC(=O)[C@H](CC(N)=O)NC(=O)[C@@H]1CCCN1C(=O)[C@H](CO)NC(=O)[C@H](CO)NC(=O)[C@H](Cc1c[nH]cn1)NC(=O)[C@H](CCCNC(=N)N)NC(=O)[C@H](CC(C)C)NC(=O)[C@H](Cc1ccccc1)NC(=O)[C@H](CC(N)=O)NC(=O)[C@H](C)NC(=O)[C@H](CC(C)C)NC(=O)[C@H](CCCNC(=N)N)NC(=O)[C@H](CCC(N)=O)NC(=O)[C@@H](NC(=O)[C@H](C)NC(=O)[C@@H]1CSSC[C@H](NC(=O)[C@@H](N)CCCCNC(=O)COCCOCCNC(=O)CC[C@H](NC(=O)CCCCCCCCCCCCCCCCCCC(=O)O)C(=O)O)C(=O)N[C@@H](CC(N)=O)C(=O)N[C@@H]([C@@H](C)O)C(=O)N[C@@H](C)C(=O)N[C@@H]([C@@H](C)O)C(=O)N1)[C@@H](C)O)C(=O)N1CCC[C@H]1C(=O)N[C@@H](CO)C(=O)N[C@@H](CO)C(=O)N[C@H](C(=O)N[C@@H](CC(N)=O)C(=O)N[C@H](C(=O)NCC(=O)N1CCC[C@H]1C(=O)N[C@@H](CC(N)=O)C(=O)N[C@H](C(=O)N[C@@H](Cc1ccc(O)cc1)C(N)=O)[C@@H](C)O)C(C)C)[C@@H](C)O
notes: Acylated analogue of human amylin; also called compound 50
B5: N^ε1-[2-[2-[2-[[(4S)-4-carboxy-4-(19-carboxynonadecanoylamino)butanoyl]amino]ethoxy]ethoxy]acetyl]-[Arg17,Pro21,Pro27,Pro34,His35]-h-amylin (peptide)
peptide: K([AEEA-γGlu-C20 diacid])CNTATCATQRLANFLRHSSPNFGAIPSSTNVGPHTY-NH2
modifications: disulfide 2-7; N-terminus assumed
SMILES: CC[C@H](C)[C@H](NC(=O)[C@H](C)NC(=O)CNC(=O)[C@H](Cc1ccccc1)NC(=O)[C@H](CC(N)=O)NC(=O)[C@@H]1CCCN1C(=O)[C@H](CO)NC(=O)[C@H](CO)NC(=O)[C@H](Cc1c[nH]cn1)NC(=O)[C@H](CCCNC(=N)N)NC(=O)[C@H](CC(C)C)NC(=O)[C@H](Cc1ccccc1)NC(=O)[C@H](CC(N)=O)NC(=O)[C@H](C)NC(=O)[C@H](CC(C)C)NC(=O)[C@H](CCCNC(=N)N)NC(=O)[C@H](CCC(N)=O)NC(=O)[C@@H](NC(=O)[C@H](C)NC(=O)[C@@H]1CSSC[C@H](NC(=O)[C@@H](N)CCCCNC(=O)COCCOCCNC(=O)CC[C@H](NC(=O)CCCCCCCCCCCCCCCCCCC(=O)O)C(=O)O)C(=O)N[C@@H](CC(N)=O)C(=O)N[C@@H]([C@@H](C)O)C(=O)N[C@@H](C)C(=O)N[C@@H]([C@@H](C)O)C(=O)N1)[C@@H](C)O)C(=O)N1CCC[C@H]1C(=O)N[C@@H](CO)C(=O)N[C@@H](CO)C(=O)N[C@H](C(=O)N[C@@H](CC(N)=O)C(=O)N[C@H](C(=O)NCC(=O)N1CCC[C@H]1C(=O)N[C@@H](Cc1c[nH]cn1)C(=O)N[C@H](C(=O)N[C@@H](Cc1ccc(O)cc1)C(N)=O)[C@@H](C)O)C(C)C)[C@@H](C)O
notes: Acylated analogue of human amylin; also called compound 58

One test addresses T1, rat calcitonin receptor (rat, UniProt P32214 25-516).
T1 construct: whole, on cells; Cell membranes of transiently transfected BHK tk'ts 13 cells (Assay VIII); also called rCTR; rCT
T1 sequence (looked up): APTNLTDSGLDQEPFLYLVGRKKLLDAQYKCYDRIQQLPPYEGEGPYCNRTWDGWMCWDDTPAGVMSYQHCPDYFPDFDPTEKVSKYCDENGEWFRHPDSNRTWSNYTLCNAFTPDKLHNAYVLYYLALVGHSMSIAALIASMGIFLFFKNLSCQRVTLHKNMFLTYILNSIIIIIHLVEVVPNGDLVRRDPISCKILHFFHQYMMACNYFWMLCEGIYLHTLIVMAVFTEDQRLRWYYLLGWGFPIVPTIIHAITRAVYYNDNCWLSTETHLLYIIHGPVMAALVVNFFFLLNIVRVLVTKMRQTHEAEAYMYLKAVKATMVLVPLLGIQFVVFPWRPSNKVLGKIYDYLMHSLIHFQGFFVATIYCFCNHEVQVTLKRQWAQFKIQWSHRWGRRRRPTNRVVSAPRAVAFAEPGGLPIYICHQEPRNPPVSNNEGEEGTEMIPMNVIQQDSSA
The test can be described thus: ratio IC50 rat calcitonin receptor / IC50 rat amylin receptor.
With B1, the “Ratio rCT/rAmylin binding” value was 135.

As for B2, the “Ratio rCT/rAmylin binding” value was determined as 39.7.

As for B3, the “Ratio rCT/rAmylin binding” value was 122.

As for B4, the “Ratio rCT/rAmylin binding” value amounted to 81.7.

For B5, the “Ratio rCT/rAmylin binding” value was 76.6.

For the next test, the target named is T2, rat amylin receptor (rat calcitonin receptor + rat RAMP 3) (rat, UniProt P32214 25-516; Q9JJ73 23-147).
T2 construct: whole, on cells; Cell membranes of transiently transfected BHK tk'ts 13 cells (Assay VI); also called rAmylin-R; rat amylin 3(a) receptor
T2 sequence (looked up) 1: T1 sequence (looked up)
T2 sequence (looked up) 2: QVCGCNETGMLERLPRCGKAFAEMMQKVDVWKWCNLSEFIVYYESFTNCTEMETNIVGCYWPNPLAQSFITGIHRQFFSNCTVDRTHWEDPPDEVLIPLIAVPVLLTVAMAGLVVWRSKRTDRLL
The test can be described thus: SPA competition vs 125I-rat amylin, membranes with rat CTR + rat RAMP3 (Assay VI).
As for B1, the IC50 came to 0.181 nM.

Turning to B2, the IC50 was 0.842 nM.

As for B3, the IC50 was 0.215 nM.

As for B4, the 50% inhibitory concentration (IC50) turned out to be 0.069 nM.

Regarding B5, the IC50 is 0.135 nM.

The target of a further test is T1, rat calcitonin receptor. Briefly: SPA competition vs 125I-calcitonin, membranes with rat CTR (Assay VIII).
Consider B1, for which the IC50 turned out to be 24.4 nM.

In the case of B2, the IC50 came to 33.4 nM.

For the molecule B3, the concentration for half-maximal inhibition (IC50) is 26.3 nM.

In the case of B4, the IC50 came out at 5.63 nM.

Consider B5, for which the IC50 was 10.3 nM.
